Experimental data taken from PMC2192030.

Biological target: Xenopus Mad1 (Xenopus (endogenous in Xenopus egg extract))
Experiment: co-IP

Xenopus Mad2 (natural protein)
percent of Mad2 removed by immunodepletion of Mad1: 20 to 40%
